Measured values as given in patent US20040236073A1 (MEDICAL RESEARCH COUNCIL, published 2004).
Substitutions are numbered along the chain they refer to. Names and notes keep the numbering of the source.

B1: wild-type NK1 fragment of HGF/SF (amino acids 28-210) (ligand)
chain: YAEGQRKRRNTIHEFKKSAKTTLIKIDPALKIKTKKVNTADQCANRCTRNKGLPFTCKAFVFDKARKQCLWFPFNSMSSGVKKEFGHEFDLYENKDYIRNCIIGKGRSYKGTVSITKSGIKCQPWSSMIPHEHSFLPSSYRGKDLQENYCRNPRGEEGGPWCFTSNPEVRYEVCDIPQCSEVE
notes: Expressed in P. pastoris; Forms a head-to-tail dimer in the crystals and a heparin-dependent dimer in solution; also called wt-NK1; wt NK1
B2: NK1 mutant HP11 (R73E:R76E) (ligand)
chain: B1 chain with R46E, R49E
notes: N domain reverse-charge mutant of NK1; Expressed in P. pastoris
B3: NK1 mutant 1K2 (K170E:R181E) (ligand)
chain: B1 chain with K143E, R154E
notes: K domain reverse-charge mutant of NK1
B4: NK1 mutant 1K1 (K132E:R134E) (ligand)
chain: B1 chain with K105E, R107E
notes: as for B3

How the values were obtained:
[1] = molecular target: the molecule itself; test: X-ray crystal structure of the NK1-heparin complex, crystal type A; self-association
[2] = molecular target: the molecule itself; test: BS3 cross-linking with western blot, and gel filtration (Superdex 200), with equimolar 14-mer heparin; self-association
Protocol: (§1) This was carried out by gel filtration chromatography and cross-linking experiments. For gel filtration, wt- or mutant NK1 (0.5 mg/ml) were incubated for 2 hours in the presence or absence of equimolar concentration of 14-mer heparin in phosphate buffered saline (PBS) adjusted to 300 mM NaCl. Samples were then loaded onto an HR30 Superdex 200 column (Ammersham Pharmacia Biotech) and eluted at 0.5 ml/min.
(§2) For cross-linking, 10 μl of wt- or mutant-NK1 (0.1 mg/ml) were incubated in the absence or presence of an equimolar concentration of 14-mer heparin in PBS. After 2 hours incubation at room temperature, 1 μl of crosslinker (BS³, Pierce) was added at 100 fold molar excess, the reaction was continued for 30 minutes and then quenched with 1 μl of 1M Tris-Cl, pH 7.4. Reaction products were loaded onto 15% SDS-polyacrylamide gels and blotted onto a nitrocellulose membrane (Schleicher & Schuell). […] HRP activity was detected after 3 further washes in PBS+0.2% Tween 20 using a chemiluminescent substrate (Pierce).
(§3) Cross-linking (Schwall et al., 1996) and gel filtration (Chirgadze et al., 1999) experiments were employed first in order to characterize heparin-mediated oligomerization of wt NK1 in solution. […] Cross-linked proteins were analyzed by western blotting and detected with an anti-HGF/SF polyclonal antibody (1W53). […]

[3] = molecular target: the molecule itself; test: BS3 cross-linking with western blot, and gel filtration, with equimolar 14-mer heparin; self-association
Protocol: as §1, §2, §3

Row | Protein | binding result [3] | also measured
1 | B1 |  | binding result [1]: binds
2 | B2 |  | binding result [2]: no binding
3 | B3 | binds | 
4 | B4 | binds | 
